The DeepSol protein solubility set

Test: soluble on expression in E. coli; label from the status in PepcDB or PDB records

## MKVNPDFFPLTQMAQRFVDQLAQCRRLGLTVLEASEHHVLIELPYSTELIGYPDTGVIHGGVITTLMDTACGSAVVSAIFQKYQSLEISPTLDLRVDYMKPAQPHKSVYGFAECYKLSSNIAFTRAIAYQDSIDDPIAHAVGSFMRISPEMVGDAFRQALIGLEHHHHHH
  soluble on expression in E. coli: soluble

## MGSDKIHHHHHHMERLDVFDCSNVLIASYFTDDRGCAHENREHTLIYLCSGELEIEERGKKTVLHPGDCAFMRRDNRMWLQKKVEDGKPYRSVVLKFSRPFLREFYQTLNRQQIPTDSEREKVSLRVLPSNRPDIRSLFESVIPYFDAGEKPSEDVLKLKMVEGIYVLLNTDRNLYASLFDFVEPWKIDILDYLNENYMCDLSLEEIASYTGRSLATFKRDFAKVSNLTPQKWIVKRRLEAAHGLIKSGKKKVTEACFDVGFKNLSHFSKIYKEAYGVAPSW
  soluble on expression in E. coli: not soluble

## MGSDKIHHHHHHMTRYQHLAGLLEQRIEQGLYQSGERLPSVRALSTEHGVSISTVQQAYHLLETRQLIMPQPRSGYFVTPRKATPPVPALTRPAQRPVEITQWESVLELVNVRLETNVLKFGSGMPDVSQPTIKPLWKEMSRLCQYQDPRVLQYDSVYGVPALREQIARLTVDCGCQLNQDDIVITTGCQEALFVAVRAVCQPGDIVAVESPAFPGTMQILRGLDIKAIEIPTDSVTGISLEALRLALDQWPVKAVLLVPSCNNPLGFIMPDARKKSLVTLAQHFDIAIIEDDAYGELAYEYPRPRAIKSFDEDGRVLLCSSFSKNLAPGLRVGWIAPGRYLERVIHTKYISTGSTVVQPQLAVAEFIRRGHYQPHLRRMRAQYKANLDIFTCWVREYFPSNICVSRPQGGFLVWIELPEYFDSLKLAREVRKAGIQIAAGSLFSASGKYRNCIRLNYANRFTEEMREGLRIVGSEVAKMMHTLPDQSAP
  soluble on expression in E. coli: not soluble

## TRFVPGGPVERMLSQMQSQGDGAASMTSAGGNTALSDEQIAELNAFYGLDKPVMEAYVDWLSRLVTLDLGESTRYYEPVSDMIAERLP
  soluble on expression in E. coli: not soluble

## HPWRKGPFTVHDIHIDTEWRSDWKWDRLLPHITPLKNRSVLDVGCGNGYHMWRMLGEDARLCVGIDPSHLFLIQFEAIRKLMGNDQRAHLLPLGIEQLPELNAFDTVFSMGVLYHRRSPLDHLIQLKNQLVAGGELVLETLVIDGDENAVLMPVDRYAQMRNVYFFPSARALKVWLESVGFVDVKIVDECVTTTGEQRSTEWMKHNSLPEYLDPNDSTKTIEGHPAPKRAILIAKKPD
  soluble on expression in E. coli: not soluble

## MATNKREKQLERECHEQKTSQAVCETKEELEKSWKDFQKVSNEYKEAVTACRKYVEEKSRPKRTVLDGDMGEPTEDQEDTNDHARRRRHHNHEGHHGNDMKHRENMDRKKHGTHVDHHGRVRRNGDHDPNDPNVDHTGHNHRVKRSIDDDPSDTTIDHTRHNHRRKRNQDDDPTDTTIDHTGHNHRRRRSDDHDPNDPNVDHTGHNHRRKRNHDDDPSDTTIDHTGHNHRRRRSDDHDPNDPNVDHIGHNHHRRKRNHDDDPSDTTIDHTGHNHRRRRSEDHDPNDPNVDHTGHNHRRRRDQDDDPSDTTIDHTGHNHRRRRSDDHDPNDPNVDHTGHNHKRRHVIASRSRRTVCSTAGHDQLSAMSSKFTKHCERENICLPDEDLPKGKQQDDILALQKLRAKKYSEYLTQVSKCYGKLHGQSSGNDSWAPSAQSQEQYNPVYPSLSGTPNFFSSSAQAYEAAPYYPAKSTAAKTTSKPVQKPYRRHHQRPNKAWSSGSQQFHLVTIDPSKPHEKPSVSKIAEAAPKPIFKVARGTVKTVNKRGTKGVQKMPNHRLEGNSWETNGLQNQTARGGGGGRGRGRGSGGRGRGGFNRGGRFNGAPKPSNNKDDIPYVHLPDDSPAITLNVSSENITAFHGFDSVFTTKHNFPVLIDNKIYGSCDHYYQICKVTDLTGVSSDKLNRGVRDENGKPIVETIEDAEKKSHSALAKDIIKAANISKEKVDEWRNSKGLETIQKALHAKVTQSAHLREALKESGDNILVHAFARDSIYGTGCTIPAIKKWLDDLSKAGVKHLKIPATFPLNKTTVQHCPVFAQGRNVLGVILMQLRQKISSGEIQVVDMSRIFNALRVNNAPAEPMDTSSKFGFISDTKSIGTF
  soluble on expression in E. coli: not soluble

## MIKRNLLVMGLAVLLSACGFQLRGTGTTELAIKELDVSARNAYGETVTQLTRLLTSSGVKVYTGAPYKLILTSENETQRTISFSGSGRSAEYQLTNTLTYEIHGDRDRLLLDNKVSADRSYVHDGNNLTGSDQEASQVRQEMRNDLIQKLMARLQQLTPSRLDELQAKADAVAKAEADALEAAQRIRDETPQQSPVEVPARLEHHHHHH
  soluble on expression in E. coli: not soluble

## GSHMFMPSDRSTERCETVLEGETISCFVVGGEKRLCLPQILNSVLRDFSLQQINAVCDELHIYCSRCTADQLEILKVMGILPFSAPSCGLITKTDAERLCNALLYG
  soluble on expression in E. coli: soluble

## MAHHHHHHMTSLHPFEYAFMAGASFSPEERVQLTSSLPLLSVQTKRKNLVLWGKIFGCKADYIIVEAFDDDAVVEPELYHTLDEGRTFSLLGTFSSVFSTCPGYSSCSGLQQAEWKQFMLLGMRGPFFGDPAYEYRVSNHSSSDSAPEIQSVKESVRLALFVEEFDHECRVVPRGAYMKAERQATATIASTTGAEVDAGERAEVRRNTALADFRERRRERCRCGTTTTCVP
  soluble on expression in E. coli: not soluble

## SQPVAITDGIYWVGAVDWNIRYFHGPAFSTHRGTTYNAYLIVDDKTALVDTVYEPFKEELIAKLKQIKDPVKLDYLVVNHTESDHAGAFPAIMELCPDAHVLCTQRAFDSLKAHYSHIDFNYTIVKTGTSVSLGKRSLTFIEAPMLHWPDSMFTYVPEEALLLPNDAFGQHIATSVRFDDQVDAGLIMDEAAKYYANILMPFSNLITKKLDEIQKINLAIKTIAPSHGIIWRKDPGRIIEAYARWAEGQGKAKAVIAYDTMWLSTEKMAHALMDGLVAGGCEVKLFKLSVSDRNDVIKEILDARAVLVGSPTINNDILPVVSPLLDDLVGLRPKNKVGLAFGAYGWGGGAQKILEERLKAAKIELIAEPGPTVQWVPRGEDLQRCYELGRKIAARIAD
  soluble on expression in E. coli: soluble

## MGSDKIHHHHHHMKWTTPADLKAQVRKLWDRGLLLASLAGGEALFPRRLTLKSPDSRGLSERFPEVREWIAQLCSAAGFYRIEWRSVNHRVLGANEIPAAIWIDTLEEALGLIGKRRAADQFATLVELTRKKQPELVPWLAKRPLRALELSEDWPRLLEIVTWVLKHPRPAIYLRQIDLPGVHTKFIEGHRGVLAELLDLVLPGEAIDATHTGIGGFCRRYGFLDKPLRVRFRVLDRNIRLPAVESDQDITLTQASFASLDLPASKVFITENEINFLAFPDVPDAMVIFGAGYGFDNLAAAPWLHQRGIYYWGDIDTHGFAILNQLRGFFPHAVSFLMDLQTLLAHRSLWGVEKQPETGTLARLNSEESALYDQLRRNHWGERVRLEQERIGFGFLHDVLRRL
  soluble on expression in E. coli: not soluble

## ESICLIGHSLGGDLARYFASEFEEVKKLILLDGGYLDLDKILPLDTELEETKNYIKSQIVSDLDVLTSKEKSEAKHWSENMEKAVRQSYHWNVEYNRYELAINYENIEAILRLRRKIQAFKREVGDTLFISPRYPNEATWREEALKELPDYFDTIFLENFGHELYTQAPKEIASLMNEWLAYFL
  soluble on expression in E. coli: not soluble

## MGSDKIHHHHHHMASRLPPLNALRAFDASARQLSFTRAAEELFVTQAAISHQIKSLEDHLGIKLFMRKNRALLLTEEGQSYYLDIKDIFTSLHEATERLLARGAKGAITVSSQASFAIQWLVPRLTAFNSLHQDIDVRIKAVDQPENSLTEDVDIAIYYGRGRWPNIHADKLHTEYLIPVCSPLLVQENAANGKPPLLTLEDLSEHTLLHDTSRKDWKRWFKQVGVKGANVNHGPIFSHSAMVLQAALHGQGIALAYSVLAKPDIDSGRLVCPFNDVLVSKNAYFIVCRENQKDIGKITAFREWMLDMVEAEQAQITDGQIS
  soluble on expression in E. coli: not soluble

## GPGSMTTQNGVNYSQREVVHRMPDWVANRRASVNRGHVAPPLTADGMNPRKASFSGSNGEKQGAVYNNYTERVSSRSGGDRIFSFDNRSTSRRESGTNVSVRSLQPVAGRTAVTHTIRFRGARWSQALSNMSVALERAIKEDVAACCGISSERIGQMKMKFTDRLVVTFVLDHSHDPSEESRFHNQLKVYNFWRTVALYPRK
  soluble on expression in E. coli: soluble

## MDRTTGKPLVGIEHLRQSIIDILSTRIGTRVMRRDYGSRIAELIDAPVNSSFSIALYAAVAEALDKWEPRFKLKKIDFKMLGTGQVSLSFEGMYLPSGKPITMEGLLIQ
  soluble on expression in E. coli: not soluble

## MGSDKIHHHHHHMIRFHIQADSDIPASTQLYNQIHFAIASRQYPPGHKLPSTRQLAMQTGLHRNTISKVYRLLEEDGVVEAQAGSGIYVRGGNDPRETAKSQRLRKQYPDIDQQIRDHIDTLLQQGCSLAEIRELFLAEVDWRLRCSASVLVTAPLQDLGAAELMYRELSQALGVPVEVVPLEELGAILKQKDSGTVVTSHYFFQDAEAITASLGARTIALDLYDYREELSFLSQQKEGSCIGIVSISPGILRAAEIIIHSLRGEALLIMSCQPNDQTKLEAMLRSASVIICDQSSIDNVKQRVSAIRDDLIRLPRLLCSKSYISEASIALLKRELGLN
  soluble on expression in E. coli: not soluble

## MGHHHHHHSHDSLAEFKVPLILFSGGEPLLREDIFEIAGYAKKKGIKSVLSTNGTLIDRDMAENLKVFEYVGVSLDGVASTNDRFRGVEGAYERAFKGLLMASEVVLSGIRFTVSKYNYKDVFSLIELAREHEIPRFCLYHLVPSGRAEFKDDITNEQRRALLDNLLREAEKEGMEIMTVDNPADGIYTYLKLKEADSEKAEMALEFLKFRGGDSSGIRLANIDHQGNVHPNQFW
  soluble on expression in E. coli: soluble

## MGDPVEGKGGPQPRGGKKKDADDEKNAWEEGDFIDEKELKGALQLGVLKTADSVALRAGERNGLDMVVEEDVVSQVGALVWDTVAQDWADDLARFVAHAGRQRVNMDDISLLTRRNPDLLRAACELAGVDCPQETSGGTKGKPRKRKKDDVTVAPMLRAAPSAPNSQNAPLLAPIQEEDDENDDDDEITILDDQILHTPQQKSYSKKAKFSEEEAPSSRKRISTSTPKTTAERTLKFPDEITPIRQPNDLQEIVVFNRANLSAIEEEEQQDSFDAFGTTGGNDSSSKTITNTSSLLRQAEEHRSSIVEPTKDRIEKERLDRLVPDDEEFENASVDSFDNFNAEPDPAPAPALAPVPEKRTSVFSKKICSFDFDDDDGDDSFDEPVVVVAEVPKLPVQQQKTPKASGSESKKKPEKRPESSTPSVFSKKNKTIQLDDHDSFDDFDFGI
  soluble on expression in E. coli: not soluble

## MSLIQEYVPGKQVTLAHIIASPNKEIYTKLGLPEGTSNALGILTITPSEAAIIAVDIATKSGDIQIGFIDRFSGSVVISGDVSSVEAALQAVIEGLQQILNFSVTCKITRTEGGSHHHHHH
  soluble on expression in E. coli: soluble

## SLVELQEIFDVSYGSKLDLNKMSSFNPTINFVGRSGKNNGVTASVDLLKNTKPYPAGLLTVALGGSVLSTFLQNKPFYTAQNVAVLNPKTEMTEQQKLFYCAAIFANAYRFSACGREANRTLRQLFVPSLDEIPSWVESVNLNPSAGVTEPKLKESLDLPVVRQSKRLDEIFTIQNGIAATKLKEFEQRQKDTVVYIRPASTQARTLRSYIARDSVDEKHIFPCHTLFTSTNGEGSHTYSYVSTCEFVANSDVAVLTPIQSDMPIEVKLYYAKCITANRYLFSYGRKPKGEKLKSIMLPYFDQQEDFDYICRFIHTLLFSNNL
  soluble on expression in E. coli: not soluble

## MSSEACTDPYLRCAFNGAALTALGISHSALLAHSPQGCEYLVNNAFASQECDYMETMTLCTKLCVDEIVHGGEDILARTIREVKDLPISALFVLSACGPEIVGDDIVGVCEALQPEVKFRLVPIESAGFRGSQYDGIDIAMDTILKKLVKDDVEKIPGSVCLEHHHHHH
  soluble on expression in E. coli: not soluble

## MSDPSSINGGIVVAMTGKDCVAIACDLRLGSQSLGVSNKFEKIFHYGHVFLGITGLATDVTTLNEMFRYKTNLYKLKEERAIEPETFTQLVSSSLYERRFGPYFVGPVVAGINSKSGKPFIAGFDLIGCIDEAKDFIVSGTASDQLFGMCESLYEPNLEPEDLFETISQALLNAADRDALSGWGAVVYIIKKDEVVKRYLKMRQD
  soluble on expression in E. coli: soluble
